Test [1] has as its target T1, cell-bound human DR5 (Colo205 and other human cell lines) (human, UniProt O14763 56-440). Description: cell-based or functional assay.
The target of test [2] is T1, cell-bound human DR5 (Colo205 and other …). Description: cell-based or functional assay. The source holds these as a separate data set.
Test [3] deals with T2, OX40 extracellular domain (TNFRSF4, Gly33-Gly212) (UniProt P43489 33-212).
T2 construct: ECD cloned into pBadThioTopo; E. coli lysate on His capture plates
T2 sequence (looked up): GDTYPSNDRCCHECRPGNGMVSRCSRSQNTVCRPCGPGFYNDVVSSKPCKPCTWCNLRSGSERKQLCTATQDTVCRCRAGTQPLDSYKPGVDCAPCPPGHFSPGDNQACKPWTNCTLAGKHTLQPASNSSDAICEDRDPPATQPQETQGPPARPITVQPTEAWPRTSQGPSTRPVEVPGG
Description: ELISA, receptor ECD from E. coli lysate on His capture plate.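 Further: binding specificity screen across TNF receptor superfamily ectodomains, anti-V5 detection as expression reference, primary antibody incubation 1 h at room temperature.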

The target of test [4] is T3, CD137 extracellular domain (TNFRSF9, Glu19-Ile188) (UniProt Q07011 19-188).
T3 construct: range 19-188; ECD cloned into pBadThioTopo; E. coli lysate on His capture plates
The test is described as above.

Test [5] concerns the target T4, OPG (TNFRSF11B, Lys17-Ile197) (UniProt O00300 17-197).
T4 construct: range 17-197; ECD cloned into pBadThioTopo; E. coli lysate on His capture plates
T4 sequence (looked up): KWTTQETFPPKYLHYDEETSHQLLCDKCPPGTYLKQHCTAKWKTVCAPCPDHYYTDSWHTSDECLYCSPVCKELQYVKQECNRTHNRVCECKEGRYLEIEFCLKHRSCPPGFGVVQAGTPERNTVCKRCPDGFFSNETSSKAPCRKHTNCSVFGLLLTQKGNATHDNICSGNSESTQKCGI
The description is as above.

The target in test [6] is T5, FAS extracellular domain (TNFRSF6, Ser20-Gly175) (UniProt P25445 20-175).
T5 construct: ECD cloned into pBadThioTopo; E. coli lysate on His capture plates
T5 sequence (looked up): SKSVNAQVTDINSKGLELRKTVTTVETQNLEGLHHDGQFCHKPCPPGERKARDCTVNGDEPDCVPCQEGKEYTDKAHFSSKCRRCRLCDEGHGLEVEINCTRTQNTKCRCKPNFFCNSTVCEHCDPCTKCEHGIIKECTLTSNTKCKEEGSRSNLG
Described as above.

Test [7] deals with T6, DcR3 (TNFRSF6B, Val27-Ala176) (UniProt O95407 27-176).
T6 construct: range 27-176; ECD cloned into pBadThioTopo; E. coli lysate on His capture plates
T6 sequence (looked up): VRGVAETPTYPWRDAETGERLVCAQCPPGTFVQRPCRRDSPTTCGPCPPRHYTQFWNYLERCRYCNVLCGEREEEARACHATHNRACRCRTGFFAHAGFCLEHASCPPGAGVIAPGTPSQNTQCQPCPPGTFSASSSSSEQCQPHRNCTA
Described as above.

For test [8], the target named is T7, BAFFR extracellular domain (TNFRSF13C, Met1-Gly64) (UniProt Q96RJ3 1-64).
T7 construct: range 1-64; ECD cloned into pBadThioTopo; E. coli lysate on His capture plates
The test is described as above.

Test [9] deals with T8, CD27 extracellular domain (TNFRSF7, Thr21-Ser187) (UniProt P26842 21-187).
T8 construct: range 21-187; ECD cloned into pBadThioTopo; E. coli lysate on His capture plates
The test is described as above.

In test [10] the target is T9, TNFR1 extracellular domain (TNFRSF1A, Leu34-Thr211) (UniProt P19438 34-211).
T9 construct: range 34-211; ECD cloned into pBadThioTopo; E. coli lysate on His capture plates
T9 sequence (looked up): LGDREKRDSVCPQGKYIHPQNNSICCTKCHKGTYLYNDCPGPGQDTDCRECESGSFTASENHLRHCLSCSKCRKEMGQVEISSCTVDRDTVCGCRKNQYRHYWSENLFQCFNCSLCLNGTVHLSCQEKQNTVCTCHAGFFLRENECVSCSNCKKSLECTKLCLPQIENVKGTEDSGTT
The test is described as above.

For test [11], the target named is T10, DcR2 extracellular domain (TNFRSF10D, Thr57-Thr198) (UniProt Q9UBN6 57-198).
T10 construct: range 57-198; ECD cloned into pBadThioTopo; E. coli lysate on His capture plates
T10 sequence (looked up): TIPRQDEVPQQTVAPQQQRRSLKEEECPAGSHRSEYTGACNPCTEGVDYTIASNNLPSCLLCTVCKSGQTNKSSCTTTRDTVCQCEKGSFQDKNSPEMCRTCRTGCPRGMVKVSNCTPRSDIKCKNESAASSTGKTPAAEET
The description is as above.

Test [12] concerns the target T11, CD40 extracellular domain (TNFRSF5, Val18-Leu192) (UniProt P25942 18-192).
T11 construct: range 18-192; ECD cloned into pBadThioTopo; E. coli lysate on His capture plates
The description is as above.

Test [13] deals with T12, TNFR3 extracellular domain (TNFRSF3, Pro30-Thr224) (UniProt P36941 30-224).
T12 construct: range 30-224; ECD cloned into pBadThioTopo; E. coli lysate on His capture plates
The test is described as above.

Test [14] concerns the target T13, hGITR (human, UniProt Q9Y5U5).
T13 construct: extracellular domain, E. coli lysate captured on a His capture plate; Target named only on the sheet; the construct is not described in the text
T13 sequence (extracellular domain, looked up): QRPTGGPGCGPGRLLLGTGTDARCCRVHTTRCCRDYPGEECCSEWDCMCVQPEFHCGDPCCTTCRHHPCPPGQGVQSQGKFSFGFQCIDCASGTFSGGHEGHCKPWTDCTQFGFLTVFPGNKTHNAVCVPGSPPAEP
The test is described as above.

Test [15] has as its target T1, cell-bound human DR5 (Colo205 and other …). Description: cell-based or functional assay. This is another data set of the same source.
Test [16] has the same target. Description: cell-based or functional assay. This is another data set of the same source.

Like-named read-outs stand apart in the source and are kept apart here.

T3 sequence (Q07011 19-188 limits assumed): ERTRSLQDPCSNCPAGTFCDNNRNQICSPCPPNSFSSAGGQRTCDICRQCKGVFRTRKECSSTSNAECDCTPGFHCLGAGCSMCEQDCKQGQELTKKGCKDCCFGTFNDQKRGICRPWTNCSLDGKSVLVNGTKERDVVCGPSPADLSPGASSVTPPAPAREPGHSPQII
T7 sequence (Q96RJ3 1-64 limits assumed): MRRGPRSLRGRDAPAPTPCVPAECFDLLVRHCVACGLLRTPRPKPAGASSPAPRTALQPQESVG
T11 sequence (P25942 18-192 limits assumed): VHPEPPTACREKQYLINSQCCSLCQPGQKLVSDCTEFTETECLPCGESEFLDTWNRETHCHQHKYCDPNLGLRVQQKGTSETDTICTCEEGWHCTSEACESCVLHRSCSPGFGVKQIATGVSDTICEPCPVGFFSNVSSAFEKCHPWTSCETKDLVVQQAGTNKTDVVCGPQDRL
T8 sequence (P26842 21-187 limits assumed): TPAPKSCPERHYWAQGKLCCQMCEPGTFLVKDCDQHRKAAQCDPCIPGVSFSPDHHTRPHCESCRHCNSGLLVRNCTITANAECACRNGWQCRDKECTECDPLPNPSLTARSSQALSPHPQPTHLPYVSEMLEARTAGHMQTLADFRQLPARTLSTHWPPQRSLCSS
T12 sequence (P36941 30-224 limits assumed): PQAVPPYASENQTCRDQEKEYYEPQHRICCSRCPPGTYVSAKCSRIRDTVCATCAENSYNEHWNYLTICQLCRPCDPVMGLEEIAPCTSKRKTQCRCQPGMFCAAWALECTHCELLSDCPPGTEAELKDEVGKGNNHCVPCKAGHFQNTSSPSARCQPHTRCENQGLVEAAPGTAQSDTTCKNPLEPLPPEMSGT

B1: 7A12 tetra (tetravalent anti-DR5 NB construct) (other)
chain: EVQLVESGGGLVQAGGSLRLSCAASGRTFSNYAMGWFRQAPGKEREFVAALNWSGGSTYYVDSVKGRFTISRDNAKNTVYLQMNSLKPEDTAVYYCAAAGSFSLGGRPYGDDYWGKGTLVTVSSGGGGSGGGGSGGGGSGGGGSGGGGSGGGGSGGGGSEVQLVESGGGLVQAGGSLRLSCAASGRTFSNYAMGWFRQAPGKEREFVAALNWSGGSTYYVDSVKGRFTISRDNAKNTVYLQMNSLKPEDTAVYYCAAAGSFSLGGRPYGDDYWGKGTLVTVSSGGGGSGGGGSGGGGSGGGGSGGGGSGGGGSGGGGSEVQLVESGGGLVQAGGSLRLSCAASGRTFSNYAMGWFRQAPGKEREFVAALNWSGGSTYYVDSVKGRFTISRDNAKNTVYLQMNSLKPEDTAVYYCAAAGSFSLGGRPYGDDYWGKGTLVTVSSGGGGSGGGGSGGGGSGGGGSGGGGSGGGGSGGGGSEVQLVESGGGLVQAGGSLRLSCAASGRTFSNYAMGWFRQAPGKEREFVAALNWSGGSTYYVDSVKGRFTISRDNAKNTVYLQMNSLKPEDTAVYYCAAAGSFSLGGRPYGDDYWGKGTLVTVSS
notes: four VHH units in one chain joined by GlySer linkers; not shown: C-terminal c-myc/His6 tag from vector pAX51
Take B1: the “EC50, caspase 3/7 in Colo205 tumor after a single dose in mice, indirect response model” value in test [1] amounted to 1.41 ng/mg tissue. Moreover, in test [2], the “IC50, cell survival, 184A1” value was at least 20 nM; the “IC50, cell survival, A549” value is at least 20 nM; the “IC50, cell survival, ARPE-19” value was at least 20 nM; the “IC50, cell survival, BxPC-3” value stood at 0.023 nM. In [2], the “IC50, cell survival, Colo205” value was 0.0066 nM; the “IC50, cell survival, H226” value is at least 20 nM; the “IC50, cell survival, H2052” value is 0.033 nM; the “IC50, cell survival, H2122” value is 0.0036 nM. Besides, in test [2], the “IC50, cell survival, HAAE-1” value is at least 20 nM; the “IC50, cell survival, Huvec” value is at least 20 nM; the “IC50, cell survival, Jurkat” value was found to be 0.037 nM; the “IC50, cell survival, M30” value was at least 20 nM. In test [2], the “IC50, cell survival, Malme-3” value was at least 20 nM; the “IC50, cell survival, MiaPaCa-2” value turned out to be 0.041 nM; the “IC50, cell survival, Molt4” value is at least 20 nM; the “IC50, cell survival, Panc-1” value is at least 20 nM. In [2], the “IC50, cell survival, WI-38” value is at least 20 nM. The binding result in test [3] is “no binding (tested: not stated)”. Besides, in test [4], the binding result is recorded as “no binding (tested: not stated)”. The binding result in test [5] is reported as “no binding (tested: not stated)”. In addition, the binding result in test [6] is “no binding (tested: not stated)”. For the same molecule, the binding result in test [7] is recorded as “no binding (tested: not stated)”. Also, in test [8], the binding result was “no binding (tested: not stated)”. Besides, the binding result in test [9] was “no binding (tested: not stated)”. Moreover, the binding result in test [10] is listed as “no binding (tested: not stated)”. In addition, the binding result in test [11] is recorded as “no binding (tested: not stated)”. In test [12], the binding result is given as “no binding (tested: not stated)”. In [13], the binding result is “no binding (tested: not stated)”. Moreover, the binding result in test [14] was “no binding (tested: not stated)”.

B2: 4E6-Hu tetra (4E6 hu tetramer) (other)
chain: EVQLLESGGGLVQPGGSLRLSCAASGRTFGSIRVGWFRQAPGKGREFVSAINRNDGTTYYADSVKGRFTISRDNSKNTVYLQMNSLRPEDTAVYYCAAGLQYNRAADRVPVGAVYWGQGTLVTVSSGGGGSGGGGSGGGGSGGGGSGGGGSGGGGSGGGGSEVQLLESGGGLVQPGGSLRLSCAASGRTFGSIRVGWFRQAPGKGREFVSAINRNDGTTYYADSVKGRFTISRDNSKNTVYLQMNSLRPEDTAVYYCAAGLQYNRAADRVPVGAVYWGQGTLVTVSSGGGGSGGGGSGGGGSGGGGSGGGGSGGGGSGGGGSEVQLLESGGGLVQPGGSLRLSCAASGRTFGSIRVGWFRQAPGKGREFVSAINRNDGTTYYADSVKGRFTISRDNSKNTVYLQMNSLRPEDTAVYYCAAGLQYNRAADRVPVGAVYWGQGTLVTVSSGGGGSGGGGSGGGGSGGGGSGGGGSGGGGSGGGGSEVQLLESGGGLVQPGGSLRLSCAASGRTFGSIRVGWFRQAPGKGREFVSAINRNDGTTYYADSVKGRFTISRDNSKNTVYLQMNSLRPEDTAVYYCAAGLQYNRAADRVPVGAVYWGQGTLVTVSS
In the case of B2, in test [15], the “IC50, cell survival, Colo205” value was determined as 0.012 nM and the “IC50, cell survival, Jurkat” value is 0.0026 nM. For the same molecule, in [16], the “IC50, cell survival, A549” value was over 10 nM; the “IC50, cell survival, BxPC-3” value is 0.0292 nM; the “IC50, cell survival, Colo205” value is 0.0034 nM; the “IC50, cell survival, H226” value turned out to be 0.129 nM. Further, in test [16], the “IC50, cell survival, H2122” value turned out to be 0.0051 nM; the “IC50, cell survival, Jurkat (72)” value was 0.0172 nM; the “IC50, cell survival, M30” value was over 10 nM; the “IC50, cell survival, MiaPaCa-2” value was 0.0185 nM. Besides, in [16], the “IC50, cell survival, Panc-1” value was 0.229 nM and the “IC50, cell survival, T24” value is 0.0447 nM.

Values taken from patent US20150259426A1 (Novartis, published 2015).
